Here are results for one substance from paper PMC7476095.

Assay [1] has as its target KU80 (UniProt P13010). Description: anti-KU80 co-IP, MAD1 blot. Particulars: reference: wild type, IR 6 Gy; sites S214.
The target in assay [2] is KU80 (UniProt P13010). Put plainly: anti-FLAG co-IP, KU80 blot. Particulars: reference: wild type, IR 6 Gy; sites S214.

Regarding “MAD1 (mitotic arrest-deficient protein 1) (from UniProt Q9Y6D9) S214A, IR 6 Gy”, the “binding against the reference” value in assay [1] and in assay [2] was “weaker” each time.
